Paper PMC9482650, “Quantitative fragmentomics allow affinity mapping of interactomes” (Nature Communications, 2022)

Assays:
Assay in all cases: holdup assay
Design in all cases: key: below the threshold = too weak to quantify, mostly under pKd 3.1 to 4
Settings in all cases: plain residues with an end cap or a label only (N-terminal biotin on a linker: ttds)
[1] = biological target: PDZD9, Q8IXQ8
[2] = biological target: T1, SHROOM3, Q8TF72
T1 sequence (Q8TF72 20-120, limits assumed, looked up): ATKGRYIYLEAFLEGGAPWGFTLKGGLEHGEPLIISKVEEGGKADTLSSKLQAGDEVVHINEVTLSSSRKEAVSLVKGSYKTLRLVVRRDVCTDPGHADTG

[3] = biological target: PARD3_1, Q8TEW0
PARD3_1, Q8TEW0, sequence (Q8TEW0 264-372): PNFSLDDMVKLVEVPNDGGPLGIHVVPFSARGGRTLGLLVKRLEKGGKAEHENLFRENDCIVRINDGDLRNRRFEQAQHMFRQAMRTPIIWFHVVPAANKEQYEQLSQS

[4] = biological target: NHERF4_3, Q86UT5
NHERF4_3, Q86UT5, sequence (Q86UT5 325-412): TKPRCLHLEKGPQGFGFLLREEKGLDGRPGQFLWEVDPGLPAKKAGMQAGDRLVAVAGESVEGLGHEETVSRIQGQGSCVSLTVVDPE

[5] = biological target: CARD14, Q9BXL6
CARD14, Q9BXL6, sequence (Q9BXL6 558-663): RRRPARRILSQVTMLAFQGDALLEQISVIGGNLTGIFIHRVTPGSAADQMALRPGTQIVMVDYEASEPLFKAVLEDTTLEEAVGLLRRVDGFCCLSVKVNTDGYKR

[6] = biological target: T2, SIPA1L3, O60292
T2 sequence (O60292 961-1052, limits assumed, looked up): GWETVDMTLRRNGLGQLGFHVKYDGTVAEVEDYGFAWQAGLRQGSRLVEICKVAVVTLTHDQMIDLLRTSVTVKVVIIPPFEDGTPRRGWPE

[7] = biological target: T3, PDZD2_4, O15018
T3 sequence (O15018 723-823, limits assumed, looked up): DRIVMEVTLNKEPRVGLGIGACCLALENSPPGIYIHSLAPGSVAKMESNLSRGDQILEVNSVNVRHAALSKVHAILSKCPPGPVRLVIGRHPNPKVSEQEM

[8] = biological target: PDLIM4, P50479
PDLIM4, P50479, sequence (P50479 1-83): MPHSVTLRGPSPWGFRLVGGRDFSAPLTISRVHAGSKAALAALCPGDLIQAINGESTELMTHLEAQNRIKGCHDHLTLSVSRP

[9] = biological target: MAGI1_3, Q96QZ7
MAGI1_3, Q96QZ7, sequence (Q96QZ7 638-725): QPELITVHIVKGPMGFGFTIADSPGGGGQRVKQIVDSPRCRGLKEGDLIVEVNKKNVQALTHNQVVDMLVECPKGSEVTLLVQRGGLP

[10] = biological target: T4, MPDZ_7, O75970
T4 sequence (O75970 1146-1253, limits assumed, looked up): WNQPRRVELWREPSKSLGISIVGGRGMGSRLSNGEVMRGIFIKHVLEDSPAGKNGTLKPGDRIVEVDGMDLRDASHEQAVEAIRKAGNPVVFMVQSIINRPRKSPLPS

[11] = biological target: T5, LNX2_4, Q8N448
T5 sequence (Q8N448 595-690, limits assumed, looked up): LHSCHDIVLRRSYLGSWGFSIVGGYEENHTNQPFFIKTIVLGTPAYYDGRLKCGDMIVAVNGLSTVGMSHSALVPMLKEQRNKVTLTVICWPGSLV

[12] = biological target: T6, RGS12, O14924
T6 sequence (O14924 17-108, limits assumed, looked up): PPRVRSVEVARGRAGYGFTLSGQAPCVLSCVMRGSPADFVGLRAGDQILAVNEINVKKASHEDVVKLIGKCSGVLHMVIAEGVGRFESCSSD

[13] = biological target: MAGI3_4, Q5TCQ9
MAGI3_4, Q5TCQ9, sequence (Q5TCQ9 716-815): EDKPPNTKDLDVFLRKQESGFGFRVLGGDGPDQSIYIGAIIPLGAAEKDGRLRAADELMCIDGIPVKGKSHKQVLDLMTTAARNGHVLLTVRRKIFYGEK

[14] = biological target: T7, MPP5, Q8N3R9
T7 sequence (Q8N3R9 251-346, limits assumed, looked up): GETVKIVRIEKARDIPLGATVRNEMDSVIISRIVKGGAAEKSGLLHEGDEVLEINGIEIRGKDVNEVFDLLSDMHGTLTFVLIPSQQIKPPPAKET

[15] = biological target: MAGI1_4, Q96QZ7
MAGI1_4, Q96QZ7, sequence (Q96QZ7 other isoform, or with tags, fused parts or gaps): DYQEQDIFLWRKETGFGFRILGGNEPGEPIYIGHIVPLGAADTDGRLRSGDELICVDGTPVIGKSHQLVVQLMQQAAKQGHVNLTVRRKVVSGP

[16] = biological target: MAST3, O60307
MAST3, O60307, sequence (O60307 945-1048): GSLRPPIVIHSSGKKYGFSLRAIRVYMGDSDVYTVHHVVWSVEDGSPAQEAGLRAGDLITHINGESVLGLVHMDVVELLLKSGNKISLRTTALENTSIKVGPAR

[17] = biological target: DLG5_2, Q8TDM6
DLG5_2, Q8TDM6, sequence (Q8TDM6 714-800): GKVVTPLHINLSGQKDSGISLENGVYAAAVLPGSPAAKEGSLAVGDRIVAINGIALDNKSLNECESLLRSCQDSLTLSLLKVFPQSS

[18] = biological target: T8, DVL1, O14640
T8 sequence (O14640 246-333, limits assumed, looked up): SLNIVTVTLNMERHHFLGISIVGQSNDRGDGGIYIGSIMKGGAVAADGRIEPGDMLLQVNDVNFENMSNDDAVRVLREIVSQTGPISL

[19] = biological target: T9, PTPN13_5, Q12923
T9 sequence (Q12923 1877-1975, limits assumed, looked up): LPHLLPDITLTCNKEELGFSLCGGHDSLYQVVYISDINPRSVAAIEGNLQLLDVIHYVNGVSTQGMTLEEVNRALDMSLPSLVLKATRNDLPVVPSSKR

[20] = biological target: T10, SNTB2, Q13425
T10 sequence (Q13425 110-208, limits assumed, looked up): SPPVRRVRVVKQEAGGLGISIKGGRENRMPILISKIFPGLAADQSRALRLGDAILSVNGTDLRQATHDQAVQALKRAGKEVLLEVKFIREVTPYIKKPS

[21] = biological target: T11, MPDZ_11, O75970
T11 sequence (O75970 1720-1817, limits assumed, looked up): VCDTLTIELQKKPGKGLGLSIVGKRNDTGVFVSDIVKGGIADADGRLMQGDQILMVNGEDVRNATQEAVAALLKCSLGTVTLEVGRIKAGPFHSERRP

[22] = biological target: CNKSR3, Q6P9H4
CNKSR3, Q6P9H4, sequence (Q6P9H4 203-303): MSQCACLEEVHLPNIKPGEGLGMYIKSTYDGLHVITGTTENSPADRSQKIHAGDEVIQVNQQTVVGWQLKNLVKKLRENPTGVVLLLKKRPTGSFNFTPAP

[23] = biological target: T12, NHERF1_2, O14745
T12 sequence (O14745 149-244, limits assumed, looked up): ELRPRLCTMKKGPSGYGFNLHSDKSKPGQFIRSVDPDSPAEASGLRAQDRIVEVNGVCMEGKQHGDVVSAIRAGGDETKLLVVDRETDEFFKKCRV

[24] = biological target: T13, PDZD11, Q5EBL8
T13 sequence (Q5EBL8 42-139, limits assumed, looked up): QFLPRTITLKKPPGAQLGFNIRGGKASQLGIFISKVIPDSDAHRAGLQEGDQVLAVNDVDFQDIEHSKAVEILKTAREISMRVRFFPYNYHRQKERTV

PDZD9, Q8IXQ8, sequence (Q8IXQ8 23-120): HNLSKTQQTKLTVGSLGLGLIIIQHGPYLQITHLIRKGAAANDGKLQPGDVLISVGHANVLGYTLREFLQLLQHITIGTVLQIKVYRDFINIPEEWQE

B1: ATP2B4, P23634 (peptide)
chain: SSLQSLETSV
For B1, the pKd [1] was “below the threshold”, the pKd [2] was “below the threshold” and the pKd [3] was “below the threshold”. The pKd [4] was “below the threshold”, the pKd [5] was “below the threshold” and the pKd [6] was “below the threshold”. For the same binder, the pKd [7] was “below the threshold”, the pKd [8] was “below the threshold” and the pKd [9] was 4.44. The pKd [10] was “below the threshold”, the pKd [11] was “below the threshold” and the pKd [12] was “below the threshold”. For the same binder, the pKd [13] was “below the threshold”, the pKd [14] was “below the threshold” and the pKd [15] was “below the threshold”. For the same binder, the pKd [16] was “below the threshold”, the pKd [17] was 4.34 and the pKd [18] was “below the threshold”. The pKd [19] was “below the threshold”, the pKd [20] was 4.87 and the pKd [21] was “below the threshold”. The pKd [22] was “below the threshold”, the pKd [23] was “below the threshold” and the pKd [24] was “below the threshold”.

B2: HPV73-E6, Q82005 (peptide)
chain: SGSRPSATVV
With B2 the pKd [1] was “below the threshold”, the pKd [2] was “below the threshold” and the pKd [3] was “below the threshold”. For the same binder, the pKd [4] was “below the threshold”, the pKd [5] was 4.12 and the pKd [6] was 4.17. For the same binder, the pKd [7] was 4.26, the pKd [8] was “below the threshold” and the pKd [9] was “below the threshold”. The pKd [10] was “below the threshold”, the pKd [11] was “below the threshold” and the pKd [12] was “below the threshold”. For the same binder, the pKd [13] was “below the threshold”, the pKd [14] was “below the threshold” and the pKd [15] was “below the threshold”. For the same binder, the pKd [16] was “below the threshold”, the pKd [18] was 4.36 and the pKd [19] was “below the threshold”. The pKd [20] was 4.13, the pKd [21] was “below the threshold” and the pKd [22] was “below the threshold”. For the same binder, the pKd [23] was “below the threshold” and the pKd [24] was “below the threshold”.

B3: HPV59-E6, Q81964 (peptide)
chain: QRQARSETLV
In the case of B3, the pKd [1] is reported as “below the threshold”, the pKd [2] is reported as “below the threshold” and the pKd [3] is reported as “below the threshold”. For the same binder, the pKd [4] was 4.28, the pKd [5] was “below the threshold” and the pKd [6] was “below the threshold”. The pKd [7] was “below the threshold”, the pKd [8] was “below the threshold” and the pKd [9] was 5.25. The pKd [10] was 4.28, the pKd [11] was 4.61 and the pKd [12] was “below the threshold”. The pKd [13] was “below the threshold”, the pKd [14] was “below the threshold” and the pKd [15] was 4.65. For the same binder, the pKd [16] was “below the threshold”, the pKd [17] was “below the threshold” and the pKd [18] was “below the threshold”. For the same binder, the pKd [19] was 4.52, the pKd [20] was “below the threshold” and the pKd [21] was “below the threshold”. The pKd [22] was “below the threshold”, the pKd [23] was “below the threshold” and the pKd [24] was “below the threshold”.
